Assay results reported in patent US5453371.

Biological target: 4-phenylazo-benzyloxycarbonyl-L-Pro-Leu-Gly-L-Pro-D-Arg.HCl

## Achromobacter collagenase gene product of Vibrio alginolyticus produced in recombinant Escherichia coli JM109 (plasmid pHUC14 or pLCO-1) (enzyme)
  Collagenase activity: 189 U
